B1: DFFB (parent)
chain: TLVEAIKEQDGREVDWEYFYGLLF
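Further: lentivirally expressed fusions sorted by FACS into six bins by GFP to DsRed ratio, PSI derived from sequencing read proportions per bin multiplied by bin number.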

The variants in this data set derive from B1. As to the kind of experiment: protein stability index of a GFP-peptide fusion (GPS, HEK-293T) (PSI 1-6); higher = more stable. To be noted: c terminus: a fixed tail appended.
For the variant TLVEAYKEQDGREVDWEYFYGLLF [I6Y], the protein stability index was determined as 1.81.

TLVEAKKEQDGREVDWEYFYGLLF [I6K]: the protein stability index was found to be 2.2.

Turning to TLVEAPKEQDGREVDWEYFYGLLF [I6P], the protein stability index amounted to 2.17.

Regarding TLVEARKEQDGREVDWEYFYGLLF [I6R], the protein stability index was 2.16.

Consider TLVEATKEQDGREVDWEYFYGLLF [I6T], for which the protein stability index was 2.01.

Regarding TLVEAMKEQDGREVDWEYFYGLLF [I6M], the protein stability index was determined as 1.94.

As to TLVEAVKEQDGREVDWEYFYGLLF [I6V], the protein stability index came out at 2.25.

Take TLVEANKEQDGREVDWEYFYGLLF [I6N]: the protein stability index was 2.2.

As for TLVEAEKEQDGREVDWEYFYGLLF [I6E], the protein stability index was found to be 2.58.

For TLVEACKEQDGREVDWEYFYGLLF [I6C], the protein stability index is 2.24.

On to TLVEASKEQDGREVDWEYFYGLLF [I6S], for which the protein stability index was 1.89.

Consider TLVEAAKEQDGREVDWEYFYGLLF [I6A], for which the protein stability index came out at 2.59.

Regarding TLVEAHKEQDGREVDWEYFYGLLF [I6H], the protein stability index was 2.58.

In the case of TLVEAWKEQDGREVDWEYFYGLLF [I6W], the protein stability index was 1.38.

TLVEAFKEQDGREVDWEYFYGLLF [I6F]: the protein stability index was 2.38.

For TLVEAQKEQDGREVDWEYFYGLLF [I6Q], the protein stability index is 2.32.

TLVFAIKEQDGREVDWEYFYGLLF [E4F]: the protein stability index came out at 2.38.

As to TLVVAIKEQDGREVDWEYFYGLLF [E4V], the protein stability index worked out at 2.87.

Consider TLVLAIKEQDGREVDWEYFYGLLF [E4L], for which the protein stability index is 1.93.

For TLVSAIKEQDGREVDWEYFYGLLF [E4S], the protein stability index turned out to be 2.62.

Regarding TLVGAIKEQDGREVDWEYFYGLLF [E4G], the protein stability index turned out to be 2.26.

Regarding TLVNAIKEQDGREVDWEYFYGLLF [E4N], the protein stability index is 2.11.

Regarding TLVQAIKEQDGREVDWEYFYGLLF [E4Q], the protein stability index came out at 1.97.

For TLVTAIKEQDGREVDWEYFYGLLF [E4T], the protein stability index worked out at 1.58.

Consider TLVKAIKEQDGREVDWEYFYGLLF [E4K], for which the protein stability index worked out at 2.99.

In the case of TLVWAIKEQDGREVDWEYFYGLLF [E4W], the protein stability index was 1.76.

As for TLVPAIKEQDGREVDWEYFYGLLF [E4P], the protein stability index was 2.08.

Regarding TLVCAIKEQDGREVDWEYFYGLLF [E4C], the protein stability index came to 2.92.

In the case of TLVDAIKEQDGREVDWEYFYGLLF [E4D], the protein stability index amounted to 1.68.

TLVAAIKEQDGREVDWEYFYGLLF [E4A]: the protein stability index came to 1.37.

As to TLVHAIKEQDGREVDWEYFYGLLF [E4H], the protein stability index worked out at 1.97.

Regarding TLVIAIKEQDGREVDWEYFYGLLF [E4I], the protein stability index is 1.57.

Regarding PLVEAIKEQDGREVDWEYFYGLLF [T1P], the protein stability index worked out at 2.54.

Turning to MLVEAIKEQDGREVDWEYFYGLLF [T1M], the protein stability index stood at 1.31.

FLVEAIKEQDGREVDWEYFYGLLF [T1F]: the protein stability index amounted to 2.56.

ALVEAIKEQDGREVDWEYFYGLLF [T1A]: the protein stability index was found to be 2.32.

RLVEAIKEQDGREVDWEYFYGLLF [T1R]: the protein stability index turned out to be 1.59.

Consider ELVEAIKEQDGREVDWEYFYGLLF [T1E], for which the protein stability index worked out at 2.9.

For KLVEAIKEQDGREVDWEYFYGLLF [T1K], the protein stability index is 2.37.

In the case of NLVEAIKEQDGREVDWEYFYGLLF [T1N], the protein stability index was 2.02.

With LLVEAIKEQDGREVDWEYFYGLLF [T1L], the protein stability index was determined as 1.58.

On to QLVEAIKEQDGREVDWEYFYGLLF [T1Q], for which the protein stability index amounted to 2.37.

As to HLVEAIKEQDGREVDWEYFYGLLF [T1H], the protein stability index is 1.89.

For the variant YLVEAIKEQDGREVDWEYFYGLLF [T1Y], the protein stability index is 2.13.

Take GLVEAIKEQDGREVDWEYFYGLLF [T1G]: the protein stability index was 2.05.

As for DLVEAIKEQDGREVDWEYFYGLLF [T1D], the protein stability index amounted to 2.24.

Consider SLVEAIKEQDGREVDWEYFYGLLF [T1S], for which the protein stability index was 1.41.

For WLVEAIKEQDGREVDWEYFYGLLF [T1W], the protein stability index stood at 1.65.

Take VLVEAIKEQDGREVDWEYFYGLLF [T1V]: the protein stability index was found to be 3.13.

Consider TLFEAIKEQDGREVDWEYFYGLLF [V3F], for which the protein stability index was 2.

For the variant TLDEAIKEQDGREVDWEYFYGLLF [V3D], the protein stability index was determined as 2.65.

On to TLIEAIKEQDGREVDWEYFYGLLF [V3I], for which the protein stability index is 3.34.

Regarding TLMEAIKEQDGREVDWEYFYGLLF [V3M], the protein stability index amounted to 2.28.

For the variant TLHEAIKEQDGREVDWEYFYGLLF [V3H], the protein stability index was 2.16.

As to TLQEAIKEQDGREVDWEYFYGLLF [V3Q], the protein stability index stood at 1.88.

For TLYEAIKEQDGREVDWEYFYGLLF [V3Y], the protein stability index was 1.39.

Consider TLEEAIKEQDGREVDWEYFYGLLF [V3E], for which the protein stability index is 2.86.

Consider TLWEAIKEQDGREVDWEYFYGLLF [V3W], for which the protein stability index is 1.76.

On to TLKEAIKEQDGREVDWEYFYGLLF [V3K], for which the protein stability index is 2.88.

Turning to TLSEAIKEQDGREVDWEYFYGLLF [V3S], the protein stability index worked out at 3.22.

With TLTEAIKEQDGREVDWEYFYGLLF [V3T], the protein stability index was 2.53.

Consider TLNEAIKEQDGREVDWEYFYGLLF [V3N], for which the protein stability index came out at 2.21.

Regarding TLGEAIKEQDGREVDWEYFYGLLF [V3G], the protein stability index is 1.58.

Consider TLREAIKEQDGREVDWEYFYGLLF [V3R], for which the protein stability index was 2.23.

For TLAEAIKEQDGREVDWEYFYGLLF [V3A], the protein stability index stood at 1.95.

For TLCEAIKEQDGREVDWEYFYGLLF [V3C], the protein stability index worked out at 1.94.

TLPEAIKEQDGREVDWEYFYGLLF [V3P]: the protein stability index turned out to be 2.16.

In the case of TLLEAIKEQDGREVDWEYFYGLLF [V3L], the protein stability index came out at 2.22.

TLVEEIKEQDGREVDWEYFYGLLF [A5E]: the protein stability index was 2.29.

Take TLVEIIKEQDGREVDWEYFYGLLF [A5I]: the protein stability index came out at 1.36.

Consider TLVEDIKEQDGREVDWEYFYGLLF [A5D], for which the protein stability index was determined as 2.54.

Take TLVENIKEQDGREVDWEYFYGLLF [A5N]: the protein stability index was determined as 2.11.

With TLVEWIKEQDGREVDWEYFYGLLF [A5W], the protein stability index is 2.84.

Regarding TLVERIKEQDGREVDWEYFYGLLF [A5R], the protein stability index was 2.29.

As for TLVEVIKEQDGREVDWEYFYGLLF [A5V], the protein stability index turned out to be 1.48.

Regarding TLVEKIKEQDGREVDWEYFYGLLF [A5K], the protein stability index was determined as 1.89.

As for TLVEGIKEQDGREVDWEYFYGLLF [A5G], the protein stability index came out at 2.68.

With TLVEQIKEQDGREVDWEYFYGLLF [A5Q], the protein stability index was determined as 2.4.

Consider TLVESIKEQDGREVDWEYFYGLLF [A5S], for which the protein stability index is 2.15.

As to TLVEPIKEQDGREVDWEYFYGLLF [A5P], the protein stability index was 2.74.

For TLVETIKEQDGREVDWEYFYGLLF [A5T], the protein stability index was 2.88.

With TLVECIKEQDGREVDWEYFYGLLF [A5C], the protein stability index worked out at 1.95.

Regarding TLVEYIKEQDGREVDWEYFYGLLF [A5Y], the protein stability index worked out at 2.73.

With TLVEMIKEQDGREVDWEYFYGLLF [A5M], the protein stability index turned out to be 2.35.

With TLVEFIKEQDGREVDWEYFYGLLF [A5F], the protein stability index was found to be 1.89.

On to TLVEHIKEQDGREVDWEYFYGLLF [A5H], for which the protein stability index was found to be 1.98.

With TLVEAIPEQDGREVDWEYFYGLLF [K7P], the protein stability index turned out to be 2.3.

Turning to TLVEAIWEQDGREVDWEYFYGLLF [K7W], the protein stability index is 2.15.

With TLVEAIQEQDGREVDWEYFYGLLF [K7Q], the protein stability index was found to be 2.16.

For the variant TLVEAIGEQDGREVDWEYFYGLLF [K7G], the protein stability index was 1.79.

Regarding TLVEAIHEQDGREVDWEYFYGLLF [K7H], the protein stability index turned out to be 1.9.

With TLVEAICEQDGREVDWEYFYGLLF [K7C], the protein stability index turned out to be 1.98.

As for TLVEAIVEQDGREVDWEYFYGLLF [K7V], the protein stability index stood at 1.64.

TLVEAITEQDGREVDWEYFYGLLF [K7T]: the protein stability index came to 2.19.

The values are drawn from the supplement of paper PMC10567573.
